How the values were obtained:
[1] = target: T1, HbA1c-type αF8P (α-fructosyl-valyl-histidyl-leucyl-threonyl-prolyl-glutamyl-glutamyl-lysine)
T1 chain: VHLTPEEK

HbC1c-type αF8P = target: T2, HbC1c-type αF8P
T2 chain: VHLTPKEK

HbS1c-type αF8P = target: T3, HbS1c-type αF8P
T3 chain: VHLTPVEK

B1: glycated hexapeptide oxidase derived from Emericella nidulans (En42FX) (protein)
chain: MAPRANTKIIVVGGGGTMGSSTALHLLRAGYTPSNITVLDTYPIPSAQSAGYDLNKIFGISGANKHDLQLSLEAFDMWKNDPLFKPFFHNVGQMDVSSTEEGIKRLRRRYQSLLRAGIGLEKTNFLLESEDEILAKAPHFTREQIKGWKGLFCGDGGWLAAAKAINAIGQFLKEQGVKFGFGEAGTFKKPLFADADEKTCIGVETVDGTKYYADKVVLAAGAWSSTLVDLEEQCVSKAWVFAHIQLTPAEAAAYKNTPVIYDGDYGFFIEPDENGIIKVCDEFPGFTHFKMHQPYGSPVPKLISVPRSHAKHPTDTYPHASEVTIKKAINRFLPRFNDKELFNRAMCWCTDTADSNLLVCEHPRWKGFYLATGDSGHSFKLLPNIGKHVVELLEGRLESVFKDAWRWRPGSGDALKSRRAAPAKDLADMPGWRNEAKM
relative activity on substrate (reference, designated as 100%) [1]: 100% | relative activity on substrate (activity on HbA1c-type αF8P = 100%) (HbC1c-type αF8P): 8% | relative activity on substrate (activity on HbA1c-type αF8P = 100%) (HbS1c-type αF8P): 41%

B2: CFP-T7-H40-3M K113N (protein)
chain: MTSNRADTRVIVVGGGGTIGSSTALHLVRSGYAPANITVLDTFEIPSAQSAGHDLNKIMGIDHGNKVNLQMSLEARQMWKEDELFQPFFHNTGRMDCESTPKGIEKLKKYYQNLHDAGAGLEKTHAWLDNEDEILSKMPLLQRDQIQGWKAIWSQDGGWLAAAKAINAIGQFLKERGVKFGFGGAGSFKQPLFDDEGTTCIGVETADGTKYYADKVVLAAGAWSPTLVDLEDQCCSKAWVYAHIQLTPEEAAEYKGVPVVYNSEYGFFFEPDEFGVIKVCNEFPGFSRFKEHQPYGAPSPKRISVPRSHAKHPTDTYPDASEVSIKKAIATFLPRFQDKELFNRALCWCTDTADSTLLMCEHPKWKNFILATGDSGHSFKILPNVGKYVVELIEGRLPEEMAYQWRWRPGGDALKSRRAAPPKDLADMPGWKHDPKL
relative activity on substrate (reference, designated as 100%) [1]: 100% | specific activity on substrate [1]: at least 20 mU/mg | relative activity on substrate (activity on HbA1c-type αF8P = 100%) (HbC1c-type αF8P): 42% | specific activity on substrate (HbC1c-type αF8P): at least 20 mU/mg | relative activity on substrate (activity on HbA1c-type αF8P = 100%) (HbS1c-type αF8P): 95% | specific activity on substrate (HbS1c-type αF8P): at least 20 mU/mg

B3: CFP-T7-H40-3M K113D (protein)
chain: MTSNRADTRVIVVGGGGTIGSSTALHLVRSGYAPANITVLDTFEIPSAQSAGHDLNKIMGIDHGNKVNLQMSLEARQMWKEDELFQPFFHNTGRMDCESTPKGIEKLKKYYQDLHDAGAGLEKTHAWLDNEDEILSKMPLLQRDQIQGWKAIWSQDGGWLAAAKAINAIGQFLKERGVKFGFGGAGSFKQPLFDDEGTTCIGVETADGTKYYADKVVLAAGAWSPTLVDLEDQCCSKAWVYAHIQLTPEEAAEYKGVPVVYNSEYGFFFEPDEFGVIKVCNEFPGFSRFKEHQPYGAPSPKRISVPRSHAKHPTDTYPDASEVSIKKAIATFLPRFQDKELFNRALCWCTDTADSTLLMCEHPKWKNFILATGDSGHSFKILPNVGKYVVELIEGRLPEEMAYQWRWRPGGDALKSRRAAPPKDLADMPGWKHDPKL
relative activity on substrate (reference, designated as 100%) [1]: 100% | specific activity on substrate [1]: at least 20 mU/mg | relative activity on substrate (activity on HbA1c-type αF8P = 100%) (HbC1c-type αF8P): 39% | specific activity on substrate (HbC1c-type αF8P): at least 20 mU/mg | relative activity on substrate (activity on HbA1c-type αF8P = 100%) (HbS1c-type αF8P): 93% | specific activity on substrate (HbS1c-type αF8P): at least 20 mU/mg

B4: CFP-T7-H40-3M K113Q (protein)
chain: MTSNRADTRVIVVGGGGTIGSSTALHLVRSGYAPANITVLDTFEIPSAQSAGHDLNKIMGIDHGNKVNLQMSLEARQMWKEDELFQPFFHNTGRMDCESTPKGIEKLKKYYQQLHDAGAGLEKTHAWLDNEDEILSKMPLLQRDQIQGWKAIWSQDGGWLAAAKAINAIGQFLKERGVKFGFGGAGSFKQPLFDDEGTTCIGVETADGTKYYADKVVLAAGAWSPTLVDLEDQCCSKAWVYAHIQLTPEEAAEYKGVPVVYNSEYGFFFEPDEFGVIKVCNEFPGFSRFKEHQPYGAPSPKRISVPRSHAKHPTDTYPDASEVSIKKAIATFLPRFQDKELFNRALCWCTDTADSTLLMCEHPKWKNFILATGDSGHSFKILPNVGKYVVELIEGRLPEEMAYQWRWRPGGDALKSRRAAPPKDLADMPGWKHDPKL
relative activity on substrate (reference, designated as 100%) [1]: 100% | specific activity on substrate [1]: at least 20 mU/mg | relative activity on substrate (activity on HbA1c-type αF8P = 100%) (HbC1c-type αF8P): 50% | specific activity on substrate (HbC1c-type αF8P): at least 20 mU/mg | relative activity on substrate (activity on HbA1c-type αF8P = 100%) (HbS1c-type αF8P): 106% | specific activity on substrate (HbS1c-type αF8P): at least 20 mU/mg

From patent publication US20200283741
